Source: paper PMC6149950, “Designability of Aromatic Interaction Networks at E. coli Bacterioferritin B-Type Channels” (Molecules : A Journal of Synthetic Chemistry and Natural …, 2017)

B1: bacterioferritin from E. coli (BFR) mutant N34W (natural protein)
chain: not shown
notes: bacterioferritin (BFR), E. coli, with N34W; made by site-directed mutagenesis of wild-type BFR in pET32 Ek/LIC
B2: bacterioferritin from E. coli (BFR) double mutant D132W/N34W (natural protein)
chain: not shown
notes: bacterioferritin (BFR), E. coli, with D132W and N34W; made by site-directed mutagenesis of wild-type BFR in pET32 Ek/LIC

Biological target: the molecule itself
Assay: SEC; Superdex 200 10/300 GL, 50 mM NaH2PO4, 150 mM NaCl, pH 7.0, 4 °C, 0.5 mL/min; column calibrated with six standard proteins; self-assembly of dimers into the 24-mer cage

Protein	stoichiometry N
B1	2
B2	2
